Molecular target: T1, membrane CD146 on cells (U87, U373, HUVEC) (human, UniProt P43121 24-646)
T1 construct: whole, on cells; also called MCAM; membranous CD146
T1 sequence (looked up): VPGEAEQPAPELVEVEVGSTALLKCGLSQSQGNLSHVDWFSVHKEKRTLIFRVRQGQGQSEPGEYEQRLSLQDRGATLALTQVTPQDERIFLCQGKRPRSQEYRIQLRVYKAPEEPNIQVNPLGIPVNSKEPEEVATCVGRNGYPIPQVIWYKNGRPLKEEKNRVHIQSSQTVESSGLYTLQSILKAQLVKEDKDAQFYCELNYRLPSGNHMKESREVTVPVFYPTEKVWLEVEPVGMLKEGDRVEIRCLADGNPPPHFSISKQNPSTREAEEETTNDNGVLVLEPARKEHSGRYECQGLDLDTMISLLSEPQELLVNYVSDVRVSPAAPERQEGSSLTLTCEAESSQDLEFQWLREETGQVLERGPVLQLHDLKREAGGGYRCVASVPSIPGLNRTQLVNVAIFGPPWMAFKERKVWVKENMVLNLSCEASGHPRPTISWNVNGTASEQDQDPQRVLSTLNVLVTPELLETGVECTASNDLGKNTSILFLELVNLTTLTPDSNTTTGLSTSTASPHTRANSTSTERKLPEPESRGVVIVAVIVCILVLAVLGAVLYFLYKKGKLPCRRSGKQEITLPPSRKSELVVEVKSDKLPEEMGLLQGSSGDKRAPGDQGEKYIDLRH
Test: co-immunoprecipitation with anti-CD146 antibody S-Endo1 from U87 cells (reproduced in U373), western blot
Method: Non-confluent U373 cells were used for immunoprecipitation with IgG or anti-CD146 antibody. Western-blotting was then carried out using antibodies directed against VEGFR2, CD146 and integrin subunits αv and β3. Membrane receptor EPcam was used as a negative control (A). U373 cells transfected or not with siRNA targeting β3 integrin were stimulated for 25 min with sCD146 or VEGF, and CD146 was immunoprecipitated before western blotting was done using antibody directed against total phospho-tyrosine (B). Control, CD146-KO, VEGFR2-KO or β3-KO U87 cells were stimulated for 25 min with either sCD146 or VEGF. Lysates were then subjected to western-blotting and membranes were probed with either anti-phospho β3 Y759 (C) or anti-phospho VEGFR2 Y1054 (D). Average of 3 experiments is shown; *P<0.05, **P<0.01, ***p<0.001, experimental vs control.
Briefly, cells were grown on plates and treated as a function of the experiment, then washed in PBS, scraped off the plates and extracted with 300 μl of ice-cold RIPA buffer (150 mM NaCl, 50 mM Tris HCl, pH 7.4, 2.4 mM EDTA, 1% Nonidet P40, 0.5 mM phenylmethylsulfonyl fluoride, supplemented with protease and phosphatase inhibitor (A32959)) for 30 min at 4° C. After centrifugation (12,000 g, 10 min, 4° C.) to eliminate cell debris and nuclei, the Pierce™ BCA protein assay kit was used to quantify protein concentration. […]

binding result: no binding
B1: EPCAM on cells (U87, U373) (other, human, UniProt P16422 24-314, looked up)
chain: QEECVCENYKLAVNCFVNNNRQCQCTSVGAQNTVICSKLAAKCLVMKAEMNGSKLGRRAKPEGALQNNDGLYDPDCDESGLFKAKQCNGTSMCWCVNTAGVRRTDKDTEITCSERVRTYWIIIELKHKAREKPYDSKSLRTALQKEITTRYQLDPKFITSILYENNVITIDLVQNSSQKTQNDVDIADVAYYFEKDVKGESLFHSKKMDLTVNGEQLDLDPGQTLIYYVDEKAPEFSMQGLKAGVIAVIVVVVIAVVAGIVVLVISRKKRMAKYEKAEIKEMGEMHRELNA
notes: whole, on cells
